Measured values from paper PMC3046773 (Life sciences, 2010).

Biological target: T1, PGIS–CFP (human, UniProt Q16647 1-500)
T1 sequence (looked up): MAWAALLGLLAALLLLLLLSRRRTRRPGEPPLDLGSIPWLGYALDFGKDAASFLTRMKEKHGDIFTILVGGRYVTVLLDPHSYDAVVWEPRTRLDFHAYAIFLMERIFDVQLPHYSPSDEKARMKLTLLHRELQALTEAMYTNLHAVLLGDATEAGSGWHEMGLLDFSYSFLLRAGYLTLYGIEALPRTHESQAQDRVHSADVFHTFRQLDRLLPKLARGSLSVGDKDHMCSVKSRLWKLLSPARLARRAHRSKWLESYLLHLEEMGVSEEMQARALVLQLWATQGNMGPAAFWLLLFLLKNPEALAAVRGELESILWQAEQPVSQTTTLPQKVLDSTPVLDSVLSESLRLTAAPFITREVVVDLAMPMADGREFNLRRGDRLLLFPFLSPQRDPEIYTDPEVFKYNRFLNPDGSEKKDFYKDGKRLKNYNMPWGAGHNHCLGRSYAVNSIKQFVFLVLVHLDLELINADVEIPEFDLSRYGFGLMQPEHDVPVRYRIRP
Assay: FRET or BRET

FRET intensity relative to COX-1-RFP with PGIS–CFP: 2 fold
B1: COX-2-RFP (enzyme, human, UniProt P35354 18-604, looked up)
chain: ANPCCSHPCQNRGVCMSVGFDQYKCDCTRTGFYGENCSTPEFLTRIKLFLKPTPNTVHYILTHFKGFWNVVNNIPFLRNAIMSYVLTSRSHLIDSPPTYNADYGYKSWEAFSNLSYYTRALPPVPDDCPTPLGVKGKKQLPDSNEIVEKLLLRRKFIPDPQGSNMMFAFFAQHFTHQFFKTDHKRGPAFTNGLGHGVDLNHIYGETLARQRKLRLFKDGKMKYQIIDGEMYPPTVKDTQAEMIYPPQVPEHLRFAVGQEVFGLVPGLMMYATIWLREHNRVCDVLKQEHPEWGDEQLFQTSRLILIGETIKIVIEDYVQHLSGYHFKLKFDPELLFNKQFQYQNRIAAEFNTLYHWHPLLPDTFQIHDQKYNYQQFIYNNSILLEHGITQFVESFTRQIAGRVAGGRNVPPAVQKVSQASIDQSRQMKYQSFNEYRKRFMLKPYESFEELTGEKEMSAELEALYGDIDAVELYPALLVEKPRPDAIFGETMVEVGAPFSLKGLMGNVICSPAYWKPSTFGGEVGFQIINTASIQSLICNNVKGCPFTSFSVPDPELIKTVTINASSSRSGLDDINPTVLLKERSTEL
